Laboratory results published in PMC3772012, “Enzyme Immobilisation on Amino-Functionalised Multi-Walled Carbon Nanotubes: Structural and Biocatalytic Characterisation” (PLoS ONE, 2013).

Substrate: CCCCCCCCCCCCCCCC(=O)Oc1ccc([N+](=O)[O-])cc1
Assay: purified protein
Assay type: biochemical, Thermomyces lanuginosus
Conditions: free enzyme, 50 mM Tris pH 9.0, 60 °C, 10-60 mM substrate, Triton X-100 and gum acacia in assay buffer

B1: Thermomyces lanuginosus lipase (Thermomyces lanuginosus) (protein)
chain: EVSQDLFNQFNLFAQYSAAAYCGKNNDAPAGTNITCTGNACPEVEKADATFLYSFEDSGVGDVTGFLALDNTNKLIVLSFRGSRSIENWIGNLNFDLKEINDICSGCRGHDGFTSSWRSVADTLRQKVEDAVREHPDYRVVFTGHSLGGALATVAGADLRGNGYDIDVFSYGAPRVGNRAFAEFLTVQTGGTLYRITHTNDIVPRLPPREFGYSHSSPEYWIKSGTLVPVTRNDIVKIEGIDATGGNNQPNIPDIPAHLWYFGLIGTCL
notes: free enzyme
Km: 3.1 mM | Vmax: 20.1 µmol/min/mg
